Assay [1] concerns the target T1, His6-TEV-MSP1D1 (CA15914) (human Apo A-I derived, engineered, biotinylated with EZ-link NHS-Biotin for the BLI experiment only).
T1 construct: Membrane scaffold protein; The entry holds the 6xHis tag, the TEV cleavage site and MSP1D1; Tested in Apo-state (lipid free) and in Nanodisc-state (POPC nanodisc, two MSP1D1 per nanodisc)
T1 chain: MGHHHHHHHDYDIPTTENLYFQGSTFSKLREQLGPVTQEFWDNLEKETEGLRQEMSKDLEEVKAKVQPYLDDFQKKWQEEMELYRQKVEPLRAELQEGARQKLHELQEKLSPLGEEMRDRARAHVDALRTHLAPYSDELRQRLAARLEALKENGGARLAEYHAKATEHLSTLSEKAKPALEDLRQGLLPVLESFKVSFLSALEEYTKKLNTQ
Kind of assay: ELISA, periplasmic extract on coated MSP (1 µg/mL in 100 µL, Apo- and Nanodisc-state), EPEA-tag detection, OD405 after 1 h. In general terms: An ELISA detects its analyte on a solid surface through an enzyme-linked reagent.
Method: (§1) Nanobodies were detected after 1 h (FIG. 2A) and overnight (FIG. 2B) subsequent incubation with a biotinylated CaptureSelect antibody and developed with a Streptavidin Alkaline Phosphatase conjugate.

Assay [2] deals with T2, His6-TEV-MSP2N2 (CA15915) (human Apo A-I derived, engineered, UniProt P02647 79-267, limits assumed).
T2 construct: Membrane scaffold protein; The entry holds the 6xHis tag, the TEV cleavage site and MSP2N2; Tested in Apo-state, in Nanodisc-state, and as the belt of nanodiscs loaded with GABAAR-β3
Described as above.
Method: as §1

In assay [3] the target is T1, His6-TEV-MSP1D1 (CA15914). Kind of assay: ELISA, periplasmic extract on coated MSP (1 µg/mL in 100 µL, Apo- and Nanodisc-state), EPEA-tag detection, OD405 after overnight.
Method: as §1
Assay [4] deals with T2, His6-TEV-MSP2N2 (CA15915). The description is as above.
Method: as §1
In assay [5] the target is T1, His6-TEV-MSP1D1 (CA15914). Briefly: ELISA, purified MegaBody on coated MSP (Apo- or Nanodisc-state) vs non-coated wells, A405.
Assay [6] deals with T2, His6-TEV-MSP2N2 (CA15915). The description is as above.

The values below come from patent US20220380456A1 (UNITED KINGDOM RESEARCH AND INNOVATION, published 2022).

Bounds are passed on as bounds.

B1: MP1521_F3 Nanobody (CA15894) (VHH)
VHH: QVQLVESGGGLVQPGGSLRLSCAASGSGFGPNVMGWYRQAPGKRRELVATINRIGNINYGDSVKGRFTLSREIAVNTVYLQMNSLKPEDAANYYCYAAKYGVDYWGKGTQVTVSS
notes: Entry includes 6xHis and EPEA tags; tested as periplasmic extract; also called Nb F3
Consider B1, for which the binding result in assay [1] and in assay [2] was “binds” throughout.

B2: MP1521_B9 Nanobody (CA15883) (VHH)
VHH: QVQLVESGGGLVQAGGSLRLSCAASGRTLCSIPMGWFRQAPGKEREFVAAIRWSGGSTYYADSVKGRFSISKDNAKNTVYLQMNNLKPEDTATYYCASAAPYSSWSRGLEYDYWGQGTQVTVSS
notes: Entry includes 6xHis and EPEA tags; tested as periplasmic extract
B2: the binding result in assay [1] and in assay [2] was “binds” in each case.

B3: MP1521_B4 Nanobody (CA15893) (VHH)
VHH: QVQLVESGGGLVQPGGSLRLSCAASKSFFNIYDLAWYRQAPGKQRELVASITKVGSTNYADSVKGRFTTSRDNAKKTVYLQMNSLKPEDTAVYYCNLVSPGGVYNYWGQGTQVTVSS
notes: as for B2
Take B3: the binding result in assay [1] and in assay [2] was “binds” throughout.

B4: MP1521_H5 Nanobody (CA15890) (VHH)
VHH: QVQLVESGGGLVQPGGSLKLSCAASGFTFSTYSMSWVRQAPGKGLEWVSRILTDGGTTSYPDSVKGRFTISRDNAKNTLYLQMNNLKPEDTAVYYCARGWPSDGYSGGYRGQGTQVTVSS
notes: as for B2
In the case of B4, the binding result in assay [1] and in assay [2] was “binds” in each case.

B5: MP1522_A12 Nanobody (CA15885) (VHH)
VHH: QVQLVESGGGLVQAGGSLRLSCAASGRTFSSYNMAWFRQVPGKEREFVASIARTGSGTYYRDSVKGRFTISRDNAKNTVYLQMNSLKPQDTAVYYCTAGGSLATISDYWGQGTQVTVSS
notes: as for B2
For the molecule B5, the binding result in assay [3] and in assay [4] was “binds” throughout.

B6: MP1521_G9 Nanobody (CA15884) (VHH)
VHH: QVQLVESGGGSVQAGGSLRLSCAASGRTFSTYRMGWFRQAPGKEREFVAGWNSINIYYADSVKGRFTISGDNAKSTVYLQMNSLKPEDTAVYYCAARGLGQTEYNYWGQGTQVTVSS
notes: as for B2
Turning to B6, the binding result in assay [1] and in assay [4] was “binds” in each case.

B7: MbNbB1^c7HopQ MegaBody (CA15908) (other)
chain: QVQLVESGGGLVQTKTTTSVIDTTNDAQNLLTQAQTIVNTLKDYCPILIAKSSSSNGGTNNANTPSWQTAGGGKNSCATFGAEFSAASDMINNAQKIVQETQQLSANQPKNITQPHNLNLNSPSSLTALAQKMLKNAQSQAEILKLANQVESDFNKLSSGHLKDYIGKCDASAISSANMTMQNQKNNWGNGCAGVEETQSLLKTSAADFNNQTPQINQAQNLANTLIQELGNNTYEQLSRLLTNDNGTNSKTSAQAINQAVNNLNERAKTLAGGTTNSPAYQATLLALRSVLGLWNSMGYAVICGGYTKSPGENNQKDFHYTDENGNGTTINCGGSTNSNGTHSYNGTNTLKADKNVSLSIEQYEKIHEAYQILSKALKQAGLAPLNSKGEKLEAHVTTSKYGSLRLSCTASGFSLSSSYMDWVRQAPGKGIEWVSTISPGGRITYAVSVEGRFTLSRDNAKNTLSLQMNELKPEDTAVYYCRRLGEKGQGTQVTVSSHHHHHHEPEA
notes: MegaBody: c7HopQ scaffold inserted in the first β-turn of Nanobody MP1521_B1; Entry includes 6xHis and EPEA tags
For the molecule B7, the “fold ELISA signal over no MSP” value in assay [5] and in assay [6] was ≥ 4 fold each time.

B8: MbNbB4^c7HopQ MegaBody (CA15907) (other)
chain: QVQLVESGGGLVQTKTTTSVIDTTNDAQNLLTQAQTIVNTLKDYCPILIAKSSSSNGGTNNANTPSWQTAGGGKNSCATFGAEFSAASDMINNAQKIVQETQQLSANQPKNITQPHNLNLNSPSSLTALAQKMLKNAQSQAEILKLANQVESDFNKLSSGHLKDYIGKCDASAISSANMTMQNQKNNWGNGCAGVEETQSLLKTSAADFNNQTPQINQAQNLANTLIQELGNNTYEQLSRLLTNDNGTNSKTSAQAINQAVNNLNERAKTLAGGTTNSPAYQATLLALRSVLGLWNSMGYAVICGGYTKSPGENNQKDFHYTDENGNGTTINCGGSTNSNGTHSYNGTNTLKADKNVSLSIEQYEKIHEAYQILSKALKQAGLAPLNSKGEKLEAHVTTSKYGSLRLSCAASKSFFNIYDLAWYRQAPGKQRELVASITKVGSTNYADSVKGRFTTSRDNAKKTVYLQMNSLKPEDTAVYYCNLVSPGGVYNYWGQGTQVTVSSHHHHHHEPEA
notes: MegaBody: c7HopQ scaffold inserted in the first β-turn of Nanobody MP1521_B4; Entry includes 6xHis and EPEA tags
Regarding B8, the “fold ELISA signal over no MSP” value in assay [5] and in assay [6] was ≥ 4 fold each time.

B9: MP1522_C10 Nanobody (CA15891) (VHH)
VHH: QVQLVESGGGLVQAGGSLRLACAASGRTSGSYAIGWFRQAPGKEREFAAAISFTAGVTYYSNSVKGRFTISRDSAKNTAYLQMNTLKPEDTAVYYCATLPSLVLILTAKPNIGYWGQGTQVTVSS
notes: as for B2
In the case of B9, the binding result in assay [1] and in assay [2] was “binds” throughout.

B10: MP1521_E1 Nanobody (CA15896) (VHH)
VHH: QVQLVESGGGLVQPGGSLRLSCAASGTITRSPTMSWARQAPGRQREWVTSILGTGRTDYADSVKGRFTISRDNANNTVYLQMNNLKPEDSAVYYCYTVLNGRPSWGQGTQVTVSS
notes: as for B2
As for B10, the binding result in assay [1] and in assay [2] was “binds” in each case.

B11: MP1522_B7 Nanobody (CA15886) (VHH)
VHH: QVQLVESGGGLVQAGGSLRLSCAASGRSFSSYGMGWFRQAPGKEREFAAGITGTAGITYYTDSVKGRFTISRDNAKNTVYLQMNNLKPEDTAVYYCAAGLTSYAGRGAAGYDYWGQGTQVTVSS
notes: as for B2
With B11, the binding result in assay [3] and in assay [4] was “binds” throughout.

B12: MP1521_E4 Nanobody (CA15889) (VHH)
VHH: QVQLVESGGGLVQAGGSLRLSCAASGRTFGSTFMGWFRQAPGKERDFVASITWNRGLTTYADSVKGRFTISRDSAKNTVDLQMNNLKPEDTAVYYCVLGMGTSFASWGQGTQVTVSS
notes: as for B2
On to B12, for which the binding result in assay [1] and in assay [2] was “binds” each time.

B13: MbNbE1^c7HopQ MegaBody (CA15909) (other)
chain: QVQLVESGGGLVQTKTTTSVIDTTNDAQNLLTQAQTIVNTLKDYCPILIAKSSSSNGGTNNANTPSWQTAGGGKNSCATFGAEFSAASDMINNAQKIVQETQQLSANQPKNITQPHNLNLNSPSSLTALAQKMLKNAQSQAEILKLANQVESDFNKLSSGHLKDYIGKCDASAISSANMTMQNQKNNWGNGCAGVEETQSLLKTSAADFNNQTPQINQAQNLANTLIQELGNNTYEQLSRLLTNDNGTNSKTSAQAINQAVNNLNERAKTLAGGTTNSPAYQATLLALRSVLGLWNSMGYAVICGGYTKSPGENNQKDFHYTDENGNGTTINCGGSTNSNGTHSYNGTNTLKADKNVSLSIEQYEKIHEAYQILSKALKQAGLAPLNSKGEKLEAHVTTSKYGSLRLSCAASGTITRSPTMSWARQAPGRQREWVTSILGTGRTDYADSVKGRFTISRDNANNTVYLQMNNLKPEDSAVYYCYTVLNGRPSWGQGTQVTVSSHHHHHHEPEA
notes: MegaBody: c7HopQ scaffold inserted in the first β-turn of Nanobody MP1521_E1; Entry includes 6xHis and EPEA tags
B13: the “fold ELISA signal over no MSP” value in assay [5] and in assay [6] was ≥ 4 fold throughout.

B14: MP1521_B1 Nanobody (CA15895) (VHH)
VHH: QVQLVESGGGLVQPGGSLRLSCTASGFSLSSSYMDWVRQAPGKGIEWVSTISPGGRITYAVSVEGRFTLSRDNAKNTLSLQMNELKPEDTAVYYCRRLGEKGQGTQVTVSS
notes: as for B2
Regarding B14, the binding result in assay [1] and in assay [2] was “binds” throughout.

B15: MP1522_A5 Nanobody (CA15892) (VHH)
VHH: QVQLVESGGGLVQPGGSLRLSCAASGFAFSNSYMSWVRQAPGKGPEWVSSISPSAWIITHGDSVKGRFTISRDNAKNTLYLQMNHLKPEDAALYYCARRQGYDGYVPSRDYWGQGTQVTVSS
notes: as for B2
As to B15, the binding result in assay [1] and in assay [2] was “binds” throughout.

B16: MP1522_B9 Nanobody (CA15888) (VHH)
VHH: QVQLVESGGGLVQAGGSLRLSCVRSARTFGSVAMGWFRQAPGKEREFVTAIDWSGSNTLYADSVKGRFTISRDNAKNTVYLQMNSLKPDDTAVYYCAASRRVVVTTSDFDSWGQGTQVTVSS
notes: as for B2
Turning to B16, the binding result in assay [1] and in assay [2] was “binds” each time.
